These binders were tested against acetylcholine receptor (assay: SPR, receptor immobilized, peptide 10 uM).

Binder | Binding affinity (RU)
KNWDR [5mer-755] | 15
KHEHK [5mer-1053] | 27
KIPWR [5mer-1058] | 25
RHDHKR [6mer-2-869] | 18
KTHIK [5mer-1060] | 29
RMPWR [5mer-761] | 31
KYWEKK [6mer-2-867] | 32
KAWVK [5mer-752] | 26
RCDWR [5mer-756] | 18
KHKMR [5mer-759] | 17
RIWAR [5mer-760] | 19
KPPGR [5mer-1049] | 29
RYMMR [5mer-751] | 20
REMPKR [6mer-2-871] | 31
KEADK [5mer-750] | 13
KPEDR [5mer-1050] | 31

Binder | Binding affinity (RU)
KTHFRK [6mer-2-872] | 28
RFDPK [5mer-1057] | 13
RNKVR [5mer-1054] | 21
KMTEKK [6mer-2-870] | 21
RCTPK [5mer-1056] | 11
KYCMR [5mer-757] | 17
RMAGR [5mer-1059] | 29
KHTWR [5mer-749] | 24
KCDFK [5mer-758] | 30
RKTPK [5mer-753] | 30
KHHEK [5mer-1055] | 15
RNDWR [5mer-1052] | 17
RTPNRR [6mer-2-868] | 30
RKNER [5mer-754] | 29
RYAHR [5mer-1051] | 28

Now from value to binder:

Binding affinity (RU) | Binder
17 | RIAKRK [6mer-2-888]
17 | REHVRR [6mer-2-893]
22 | RFHWRR [6mer-2-894]
27 | KDENRK [6mer-2-892]
17 | KCMVRR [6mer-2-885]
24 | KETVRR [6mer-2-878]
28 | RTSIRK [6mer-2-891]
11 | KNWGRR [6mer-2-873]
15 | RTPAKR [6mer-2-882]
33 | KIHFRK [6mer-2-874]
12 | RTHHKK [6mer-2-880]
28 | KYMAKK [6mer-2-895]
33 | KDTEKK [6mer-2-881]
22 | RTNEKR [6mer-2-883]
17 | KPPERR [6mer-2-877]
30 | RTCARR [6mer-2-896]
13 | RIDHRK [6mer-2-875]
18 | RCPKKR [6mer-2-887]
13 | KTWVRR [6mer-2-886]
30 | RDNPKR [6mer-2-890]
16 | KKKDKK [6mer-2-898]
17 | RPAHKK [6mer-2-897]
17 | KEDNKR [6mer-2-876]
19 | RTMDRR [6mer-2-879]
12 | REWDKK [6mer-2-889]
11 | KMTMKK [6mer-2-884]

Reference: US20250011363A1, “OPTIMIZED SHORTENED PEPTIDE THAT BINDS TO ACETYLCHOLINE RECEPTOR, AND USE THEREOF” (SKINMED CO., LTD., priority 2021, published 2025)
